Assay results reported in patent US20250270295A1 (ALBERT LUDWIGS UNIVERSITAET FREIBURG, published 2025).
Numbering of substitutions follows the chain as printed. Numbers in names are those of the source.

T1: soluble human ICOSL ectodomain, V5-His tagged (sICOSL-V5His) (human, UniProt O75144 19-256)
T1 construct: extracellular domain; Control protein with the same tags as the vFcγRs
T1 sequence: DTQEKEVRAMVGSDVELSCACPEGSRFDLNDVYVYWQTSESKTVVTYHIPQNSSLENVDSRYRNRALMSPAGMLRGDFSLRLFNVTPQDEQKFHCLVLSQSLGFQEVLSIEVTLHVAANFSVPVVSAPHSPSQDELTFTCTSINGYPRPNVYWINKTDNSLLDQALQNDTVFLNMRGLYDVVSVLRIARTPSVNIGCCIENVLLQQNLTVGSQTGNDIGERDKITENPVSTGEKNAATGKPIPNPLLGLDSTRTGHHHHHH

T2: gp68_ECD_4a* (1-144aa) (HCMV strain AD169, UniProt P16739 24-144)
T2 construct: Shortened by a stop codon that arose in cloning, so a C-terminal tag is doubtful
T2 sequence: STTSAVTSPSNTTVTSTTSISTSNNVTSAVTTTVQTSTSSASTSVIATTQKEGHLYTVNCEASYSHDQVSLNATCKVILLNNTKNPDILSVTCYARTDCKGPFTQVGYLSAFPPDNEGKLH

T3: gp68_ECD_7 (gp68 ΔO-glyc, 1-293 lacking 27-67aa) (HCMV strain AD169, UniProt P16739 65-292)
T3 sequence: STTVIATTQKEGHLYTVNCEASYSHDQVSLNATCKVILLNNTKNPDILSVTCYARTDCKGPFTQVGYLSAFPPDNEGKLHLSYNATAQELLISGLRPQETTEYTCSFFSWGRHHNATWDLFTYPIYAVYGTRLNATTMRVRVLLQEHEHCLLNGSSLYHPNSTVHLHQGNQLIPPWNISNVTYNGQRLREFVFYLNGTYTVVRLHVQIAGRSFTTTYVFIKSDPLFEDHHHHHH

T4: native vFcγR gp34 of HCMV AD169 (infected cells, virions) (HCMV strain AD169, UniProt P16809 24-234)
T4 construct: also called native HCMV gp34 protein; gp34/RL11
T4 sequence (looked up): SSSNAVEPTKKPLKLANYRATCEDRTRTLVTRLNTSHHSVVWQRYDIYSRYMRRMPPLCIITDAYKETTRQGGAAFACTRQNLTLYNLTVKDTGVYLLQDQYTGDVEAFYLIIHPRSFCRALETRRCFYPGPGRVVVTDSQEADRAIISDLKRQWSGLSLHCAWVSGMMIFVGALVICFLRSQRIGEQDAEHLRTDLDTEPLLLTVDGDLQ

T5: gp68 on stably transduced HeLa cells (HCMV strain AD169, UniProt P16739 24-345)
T5 construct: whole, on cells; also called plasma membrane exposed gp68
T5 sequence: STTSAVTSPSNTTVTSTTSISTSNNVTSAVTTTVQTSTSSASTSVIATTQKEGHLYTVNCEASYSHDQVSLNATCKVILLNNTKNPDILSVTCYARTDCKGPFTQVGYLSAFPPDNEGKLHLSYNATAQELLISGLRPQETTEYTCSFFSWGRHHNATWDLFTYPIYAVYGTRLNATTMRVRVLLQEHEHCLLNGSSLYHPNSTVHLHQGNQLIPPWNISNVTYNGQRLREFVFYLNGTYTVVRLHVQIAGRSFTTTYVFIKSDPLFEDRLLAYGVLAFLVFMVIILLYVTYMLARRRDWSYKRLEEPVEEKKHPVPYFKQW

T6: gp34wt on stably transduced HeLa cells (HCMV strain AD169, UniProt P16809 24-234)
T6 construct: whole, on cells; also called plasma membrane exposed gp34wt
T6 sequence: T4 sequence (looked up)

T7: gp34mtrp (W65F) on stably transduced HeLa cells (HCMV strain AD169, UniProt P16809 24-234)
T7 construct: whole, on cells; also called plasma membrane exposed gp34mtrp
T7 sequence: T4 sequence (looked up) with W42F

T8: soluble gp34 wild type ectodomain, V5-His tagged (sgp34wt-V5-His) (HCMV strain AD169)
T8 construct: Entry holds signal peptide 1-23 (left out), ectodomain, V5 tag and His tag; Forms monomers, dimers and higher oligomers; also called sol gp34 wt; gp34 1-179
T8 chain: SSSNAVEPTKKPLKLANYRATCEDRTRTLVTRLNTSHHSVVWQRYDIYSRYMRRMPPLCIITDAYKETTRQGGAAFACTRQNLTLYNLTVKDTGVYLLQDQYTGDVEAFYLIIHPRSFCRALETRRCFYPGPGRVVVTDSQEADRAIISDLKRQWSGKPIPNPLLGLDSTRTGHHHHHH

T9: C-reactive protein (human, UniProt P02741 19-224)
T9 construct: also called CRP; human CRP
T9 sequence: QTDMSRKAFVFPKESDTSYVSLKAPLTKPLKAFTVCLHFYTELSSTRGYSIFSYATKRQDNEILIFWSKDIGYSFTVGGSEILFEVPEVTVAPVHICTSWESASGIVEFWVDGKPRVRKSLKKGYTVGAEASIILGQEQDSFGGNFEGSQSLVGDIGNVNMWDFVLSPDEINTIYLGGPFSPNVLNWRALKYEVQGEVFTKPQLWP

B1: gp68.05 (antibody, V domains shown)
VH: QVKLEESGAELMKPGASVKISCTATGYTFSGYWIEWVKQRPGHGLEWIGEILPGSGGTNYNEKFKGKATFTADTSSNTAYMQLSSLTSEDSAVYYCARGIHYFGYYYFDYWGQGTTLTVSSAKTTPPSVY
VL: DIVLTQTPSSLSASLGDRVTISCRASQDISNYLNWYQLKPDGTVKLLIYYTSRLHSGVPSRFSGSGSGTDYSLTISNLEQEDIATYFCQQGNTLPPTFGGGTKLEIKRADAAPTVS
notes: mouse IgG1 hybridoma mAb; leader in entries; also called anti gp68 clone 68.05
B2: gp68.06 (antibody, V domains shown)
VH: B1 VH with E6Q
VL: B1 VL with T7S, S76N
notes: mouse IgG1 hybridoma mAb; leader in entries; also called anti gp68 clone 68.06
B3: gp68.01 (antibody, V domains shown)
VH: EVKLLESGPELVKPGSSVKISCKASGYSFADHIILWVKQSHGKSLEWIGNINPYSGNTIYNLNFKGKATLTVDKSSSTAYMQLNSLTSEDSAVYYCARIEGYYSMDYWGQGTSVTVSS
VL: DIVMTQTPLSLPVSLGDQASISCRSSQSIVHSNGNTYLEWYLQKPGQSPKVLIYKVSKRFSGVPDRFSGSGSGTDFTLKISRVEAEDMGVYYCFQGSHVPLTFGAGTKLELK
notes: mouse IgG1 hybridoma mAb; leader in entries
B4: gp68.02 (antibody, V domains shown)
VH: B3 VH with E6Q
VL: B3 VL with M4L
notes: as for B3
B5: gp68.03 (antibody, V domains shown)
VH: EVKLEESGPEVKKPGETVKISCKASGYTFTNYGMSWLRQAPGKGLKWMGWINTYTGEPTYADDFKGRFAFSLETSASTAYFQINNLKDEDTTTYFCARRAFGGLDYWGQGTSVTVFS
VL: DIVLTQTPLSLPVSLGDQASISCRSSQSIVHSNGNTYLEWYLQKPGQSPKVLIYKVSKRFSGVPDRFSGSGSETDFTLKISRVEAEDMGVYYCFQGSHVPLTFGAGTKLELKR
notes: mouse IgG1 hybridoma mAb; leader in entries; VH entry see recheck; also called anti gp68 clone 68.03
B6: gp34mtrp.01 (antibody, V domains shown)
VH: QVKLEESGAELVKPGASVKLSCTGSGFNIKDIYMDWVKQRPEQGLEWIGRIDPANGNSKYDPKFQGKATITVDTSSNTAYLQLSSLTSEDTAVYYCASYYGSSYNYWGQGTTLTVSS
VL: DIVITQTPPSVPVTPGESVSISCRSSKSLLHSNGNTYLYWFLQRPGQSPQLLIYRMSNLASGVPDRFSGSGSGTAFTLRISRVEAEDVGVYYCMQHLEYPLTFGAGTKLELKRADAAPTVS
notes: mouse IgG1 hybridoma mAb; leader in entries; also called anti gp34 clone mtrp.01
B7: gp34mtrp.02 (antibody, V domains shown)
VH: B6 VH with E6Q
VL: B6 VL
notes: mouse IgG1 hybridoma mAb; leader in entries; also called anti gp34 clone mtrp.02
B8: soluble gp34 ectodomain W65F, V5-His tagged (sgp34mtrp-V5-His) (receptor)
chain: T8 chain with W42F
notes: signal peptide 1-23 left out; V5 and His tags are in the entry; Forms only monomers and dimers; also called sol gp34mtrp; gp34 1-179 W65F

How the values were obtained:
[1] = biological target: T10, soluble gp68 ectodomain, V5-His tagged (sgp68-V5-His) (HCMV strain AD169, UniProt P16739 24-292); assay: ELISA
T10 construct: V5 and His tags are in the entry; also called sol gp68; sgp68wt

[2] = biological target: T1, soluble human ICOSL ectodomain, V5-His …; assay: western blot
gp68_ECD_wt = biological target: T11, gp68_ECD_wt (HCMV strain AD169, UniProt P16739 24-292); assay: ELISA, coated supernatant
T11 construct: Called 'same antigen as used for immunization'; used as HEK293T supernatant; also called gp68wt extracellular domain

gp68_ECD_1 (1-201 aa) = biological target: T12, gp68_ECD_1 (1-201 aa) (HCMV strain AD169, UniProt P16739 24-201); assay: ELISA, coated supernatant
T12 construct: signal peptide 1-23 left out

gp68_ECD_4a* (1-144aa) = biological target: T2, gp68_ECD_4a* (1-144aa); assay: ELISA, coated supernatant
gp68_ECD_4b (1-152) = gp68_ECD_4b (1-152) (HCMV strain AD169, UniProt P16739 24-152); assay: ELISA, coated supernatant
[3] = biological target: T3, gp68_ECD_7 (gp68 ΔO-glyc, 1-293 lacking …); assay: ELISA, coated supernatant
[4] = biological target: T4, native vFcγR gp34 of HCMV AD169 …; assay: IP from infected cells; Fc-mediated background per the filing
Procedure: Finally, anti-vFcγR gp68 mAbs were used for immunoprecipitation experiments. MRC5 fibroblasts were infected with HCMV AD169wt strain or a virus mutant lacking vFcγR gp68 (Δgp68) for 4 days with MOI 3. Infected cells were metabolically labeled with ³⁵S for 2 hours at 37° C., washed and lysed using NP40-lysis buffer. Lysates were incubated with indicated mAbs or human IgG Fc-fragment to pulldown vFcγR gp68 specifically or both HCMV-encoded vFcγRs gp34, gp68 using human IgG-Fc-fragment to precipitated Fc-binding proteins. Samples were deglycosylated by EndoH and separated on SDS-page gradient gel.
MRC5 fibroblast were infected with MOI 2. Four days post infection cells were metabolically labelled and following lysates were incubated with indicated anti-gp68 mAbs or human IgG-Fc-fragment for precipitation of vFcγR gp68.

[5] = biological target: T5, gp68 on stably transduced HeLa cells; assay: flow cytometry, HeLa, 1 µg/ml
[6] = biological target: B8; assay: ELISA mtrp
[7] = biological target: T6, gp34wt on stably transduced HeLa cells; assay: flow cytometry, HeLa, 1 µg/ml
[8] = biological target: T7, gp34mtrp (W65F) on stably transduced …; assay: flow cytometry, HeLa, 1 µg/ml
[9] = biological target: T8, soluble gp34 wild type ectodomain, …; assay: sgp34wt pre-incubated with mAb, ELISA on CRP
Source text: In addition, binding of sgp34wt to immobilized CRP in absence of any mAb is depicted.

[10] = biological target: T8, soluble gp34 wild type ectodomain, …; assay: sgp34wt pre-incubated with mAb, ELISA on FcRn
Procedure: Furthermore, the gp34wt and FcRn interaction was investigated whereby various anti-gp34 mAbs were analyzed and their potential to block this interaction was identified. Experiments were performed as described before for IgG-blocking ELISA, but this time using immobilized FcRn as a novel gp34-ligand.
In addition, binding of sgp34wt to immobilized FcRn in absence of any mAb is depicted.

[11] = biological target: T8, soluble gp34 wild type ectodomain, …; assay: blocking of sgp34wt binding to immobilized human IgG, ELISA
Procedure: FIG. 44: IgG blocking ability by anti-gp34mtrp mAbs. vFcγR gp34 is an HCMV encoded IgG-Fc-binding. Anti-gp34mtrp-specific mAbs (in titration) were pre-incubated with recombinant, sgp34wt (constant amount 1 μg/ml) and added to IgG-immobilized ELISA plates. […] Dose-dependent potential of mAbs used for blocking is indicated. Effect by non-specific mouse IgG isotype IgG1 is shown. In addition, binding of sgp34wt to immobilized IgG in absence of any mAb is depicted.
To test if anti-gp34wt specific mAbs can interfere with IgG-binding ability of gp34 and human IgG. Therefore, recombinant, sgp34wt was pre-incubated with indicated anti-gp34wt specific mAbs, mouse IgG isotype or PBS only. Next, antibody bound sgp34wt was incubated on IgG-immobilized ELISA plates.
Anti-gp34wt-specific mAbs (in titration) were pre-incubated with recombinant, sgp34wt (constant amount 1 μg/ml) and added to IgG-immobilized ELISA plates. […] Dose-dependent potential of mAbs used for blocking is indicated. […] In addition, binding of sgp34wt to immobilized IgG in absence of any mAb is depicted.

C-reactive protein = biological target: T9, C-reactive protein; assay: ELISA, CRP beside IgG1 and IgA

| Binder | binding result [1] | binding result [2] | binding result (gp68_ECD_wt) | binding result (gp68_ECD_1 (1-201 aa)) | binding result (gp68_ECD_4a* (1-144aa)) | binding result (gp68_ECD_4b (1-152)) | binding result [3] | binding result [4] | binding result [5] | binding result [6] | binding result [7] | binding result [8] | percent blocking of gp34-CRP-binding [9] [%] | percent blocking of gp34 FcRn-binding [10] [%] | IC50 [11] [µg/mL] | binding result (C-reactive protein) |
| --- | --- | --- | --- | --- | --- | --- | --- | --- | --- | --- | --- | --- | --- | --- | --- | --- |
| B1 | binds | no binding | binds | no binding (tested: 1 µg/ml) | no binding (tested: 1 µg/ml) | no binding (tested: 1 µg/ml) | binds | binds | – | – | – | – | – | – | – | – |
| B2 | binds | no binding | binds | no binding (tested: 1 µg/ml) | no binding (tested: 1 µg/ml) | no binding (tested: 1 µg/ml) | binds | binds | – | – | – | – | – | – | – | – |
| B3 | binds | no binding | binds | binds | – | – | binds | – | binds | – | – | – | – | – | – | – |
| B4 | binds | no binding | binds | binds | – | – | binds | – | binds | – | – | – | – | – | – | – |
| B5 | – | no binding | – | no binding (tested: 1 µg/ml) | no binding (tested: 1 µg/ml) | no binding (tested: 1 µg/ml) | – | – | – | – | – | – | – | – | – | – |
| B6 | – | – | – | – | – | – | – | – | – | binds | binds | binds | ~50 | ≤ 50 | 0.239 | – |
| B7 | – | – | – | – | – | – | – | – | – | binds | binds | binds | ~50 | ≤ 50 | 0.33 | – |
| B8 | – | – | – | – | – | – | – | – | – | – | – | – | – | – | – | binds |
